Laboratory results as given in patent US20250250312A1, “BIFUNCTIONAL PEPTIDE WITH MU[…] VIRUS BINDING PROPERTIES” (priority 2022, published 2025).
Read-outs that look alike come from different tables or passages of the source.

Legend:
[1] = target: T1, receptor binding domain (RBD) of SARS-CoV-2 wildtype (2019-nCoV) (SARS-CoV-2), P0DTC2
[2] = target: T1, receptor binding domain (RBD) of …; remark: listed apart in the source
[3] = target: receptor binding domain (RBD) of SARS-CoV-2 alpha variant (B.1.1.7) (SARS-CoV-2), P0DTC2
[4] = target: receptor binding domain (RBD) of SARS-CoV-2 delta variant (B.1.617.2) (SARS-CoV-2), P0DTC2
[5] = target: T1, receptor binding domain (RBD) of …; remark: listed apart in the source

ECQAKTFLDKFNHEAEDLFYQSS (modifications not checked) [p4C2] showed a Kd [1] of 34 nM.

Work on EECAKTFLDKFNHEAEDLFYQSS (modifications not checked) [p4C3] yielded a Kd [1] of 42 nM.

With EEQCKTFLDKFNHEAEDLFYQSS (modifications not checked) [p4C4] the Kd [1] was 1300 nM.

EEQACTFLDKFNHEAEDLFYQSS (modifications not checked) [p4C5] gave a Kd [1] of 2140 nM.

Binder EEQAKTCLDKFNHEAEDLFYQSS (modifications not checked) [p4C7] has a Kd [1] of 1940 nM.

In the case of EEQAKTFCDKFNHEAEDLFYQSS (modifications not checked) [p4C8], the Kd [1] is reported as 281 nM.

EEQAKTFLCKFNHEAEDLFYQSS (modifications not checked) [p4C9] was tested, and the Kd [1] was 3230 nM.

With EEQAKTFLDCFNHEAEDLFYQSS (modifications not checked) [p4C10] the Kd [1] was 331 nM.

Work on EEQAKTFLDKCNHEAEDLFYQSS (modifications not checked) [p4C11] yielded a Kd [1] of 12 nM.

EEQAKTFLDKFCHEAEDLFYQSS (modifications not checked) [p4C12] was tested, and the Kd [1] was 2050 nM.

Work on EEQAKTFLDKFNCEAEDLFYQSS (modifications not checked) [p4C13] yielded a Kd [1] of 28 nM.

Binder EEQCKTFCDKFNHEAEDLFYQSS (modifications not checked) [p4C4, 8] has a Kd [1] of 59 nM.

EEQAKTFCDKFCHEAEDLFYQSS (modifications not checked) [p4C8, 12] gave a Kd [1] of 47 nM.

EEQAKTFLDKCNHECEDLFYQSS (modifications not checked) [p4C11, 15] gave a Kd [1] of 68 nM.

EEQAKTFLDKFNHECEDLCYQSS (modifications not checked) [p4C15, 19] was tested, and the Kd [1] was 238 nM.

Binder EEQAKTFLDKFNHEAEDCFYQCS (modifications not checked) [p4C18, 22] has a Kd [1] of 218 nM.

In the case of EEQCKTFCDKFNHEAEDCFYQCS (modifications not checked) [p4C4, 8, 18, 22], the Kd [1] is reported as 400 nM.

Binder EAAAKEEQAKTFLDKFNHEAEDLFYQSSGLGKGDFR (modifications not checked) [p6-rigid] has a Kd [2] of 4530 nM.

With EEQAKTFLDKFNHEAEDLFYQSCGLGKGDFRC (modifications not checked) [p6-dis] the Kd [2] was 2600 nM.

EAAAKEEQAKTFLDKFNHEAEDLFYQSCGLGKGDFRC (modifications not checked) [p6-rigid-dis] was tested, and the Kd [2] was 5140 nM.

EEQAKTFLDKFNHEAEDLFYQSSGLGKGDFR (modifications not checked) [p6 peptide] showed a Kd [3] of 320 nM and a Kd [4] of 190 nM.

EEQAKTFKDKFDHEAEDKFYQDSGLGKGDFR (modifications not checked) [p6(K)8,18(D)12,22] gave a Kd [5] of 10000 nM.
